Columns and labels:
[1] = molecular target: 扎依尔型GP蛋白 (扎依尔型埃博拉病毒 (ZEBOV)); test: cell-based or functional assay
[2] = molecular target: 苏丹型GP蛋白 (苏丹型埃博拉病毒 (SUDV)); test: cell-based or functional assay
马尔堡病毒GP蛋白 (马尔堡病毒 (MARV)) [3] = test: cell-based or functional assay
[4] = molecular target: 扎依尔型GP蛋白 (扎依尔型埃博拉病毒 (ZEBOV)); test: ELISA, GP protein coated on plate, goat anti-human IgG-HRP detection
[5] = molecular target: 苏丹型GP蛋白 (苏丹型埃博拉病毒 (SUDV)); test: as above
马尔堡病毒GP蛋白 (马尔堡病毒 (MARV)) [6] = test: as above

B1: 单克隆抗体40C1L (antibody, V domains shown)
VH: EVQLVQSGAEVKRPGESLKISCKTSGYSFPTYWITWVRQMPGKGLEWMGTIDLSDSETKYSPSFDGQVTISADKSINTAYLQWSSLKASDSATYYCAMRYSNYRTWFNVWGPGVLVTVSS
VL: SYDLTQPPSVSVSPGQTARITCGGDNIGSEAVHWYQQQPPQAPVLVIYYNRERPSGIPERFSGSKSGNTATLTISGVEAGDEADYYCQLWDSSSDYPLFGGGTRLTVL
B1 showed a 假病毒中和 最大半数抑制浓度(IC50) [1] of 25.3 µg/mL, a 假病毒中和 最大半数抑制浓度(IC50) [2] of 3.12 µg/mL and a 假病毒中和 最大半数抑制浓度(IC50) (马尔堡病毒GP蛋白 (马尔堡病毒 (MARV)) [3]) of 14.5 µg/mL. The EC50 [4] was 0.697 µg/mL, the EC50 [5] was 2.09 µg/mL and the EC50 (马尔堡病毒GP蛋白 (马尔堡病毒 (MARV)) [6]) was 0.342 µg/mL.

Source: patent publication CN110655572A
